This note sets out measurements from patent US20080280831A1 (BOARD OF REGENTS OF THE UNIVERSITY OF OKLAHOMA, published 2008).

For this assay, the target named is T1, Factor VIIa (purified human, Enzyme Research Laboratories) (human, UniProt P08709 61-466).
T1 sequence (looked up): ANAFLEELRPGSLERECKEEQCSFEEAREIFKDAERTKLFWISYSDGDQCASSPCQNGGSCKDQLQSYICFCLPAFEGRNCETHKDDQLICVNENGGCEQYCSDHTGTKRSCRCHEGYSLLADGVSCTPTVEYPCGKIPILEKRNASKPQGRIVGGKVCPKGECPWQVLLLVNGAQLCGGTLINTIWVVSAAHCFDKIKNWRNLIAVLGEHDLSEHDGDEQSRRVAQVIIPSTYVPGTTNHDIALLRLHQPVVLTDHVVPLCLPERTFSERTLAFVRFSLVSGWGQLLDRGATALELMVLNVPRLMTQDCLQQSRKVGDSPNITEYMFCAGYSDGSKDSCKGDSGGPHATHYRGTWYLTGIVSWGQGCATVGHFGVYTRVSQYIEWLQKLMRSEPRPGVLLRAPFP
Put plainly: Titration of cofactor against 5 nM Factor VIIa; increase in amidolytic activity (Chromozym t-PA); no phospholipid vesicles. The protocol: After 10 min at room temperature, Chromozym t-PA was added (1 mM final) and the initial rate of substrate hydrolysis was measured at 405 nm using a microplate reader (Molecular Devices, Menlo Park, Calif.). […] Kinetic parameters were calculated using Prism 4 (GraphPad Software, San Diego, Calif.).

B1: sTF-annexin V chimeric protein (other)
chain: GTTNTVAAYNLTWKSTNFKTILEWEPKPVNQVYTVQISTKSGDWKSKCFYTTDTECDLTDEIVKDVKQTYLARVFSYPAGNVESTGSAGEPLYENSPEFTPYLETNLGQPTIQSFEQVGTKVNVTVEDERTLVRRNNTFLSLRDVFGKDLIYTLYYWKSSSSGKKTAKTNTNEFLIDVDKGENYCFSVQAVIPSRTVNRKSTDSPVECMGQEKGEFREGGGGSGGGGSGGGGSAQVLRGTVTDFPGFDERADAETLRKAMKGLGTDEESILTLLTSRSNAQRQEISAAFKTLFGRDLLDDLKSELTGKFEKLIVALMKPSRLYDAYELKHALKGAGTNEKVLTEIIASRTPEELRAIKQVYEEEYGSSLEDDVVGDTSGYYQRMLVVLLQANRDPDAGIDEAQVEQDAQALFQAGELKWGTDEEKFITIFGTRSVSHLRKVFDKYMTISGFQIEETIDRETSGNLEQLLLAVVKSIRSIPAYLAETLYYAMKGAGTDDHTLIRVMVSRSEIDLFNIRKEFRKNFATSLYSMIKGDTSGDYKKALLLLCGEDDPLEHHHHHH
notes: Expressed in the E. coli periplasm from pET-22b(+), whose signal peptide is removed; also called sTF-annV; sTF-AnnV
As a reminder, the Kd is the concentration at which binding is half-saturated. Read a low Kd as a tighter complex. For the molecule B1, the Kd came out at 7.05 nM.

B2: recombinant sTF (TF2-219) (receptor)
chain: GTTNTVAAYNLTWKSTNFKTILEWEPKPVNQVYTVQISTKSGDWKSKCFYTTDTECDLTDEIVKDVKQTYLARVFSYPAGNVESTGSAGEPLYENSPEFTPYLETNLGQPTIQSFEQVGTKVNVTVEDERTLVRRNNTFLSLRDVFGKDLIYTLYYWKSSSSGKKTAKTNTNEFLIDVDKGENYCFSVQAVIPSRTVNRKSTDSPVECMGQEKGEFRE
notes: also called soluble TF; soluble Tissue Factor
In turn, B2 showed a dissociation constant (Kd) of 8.17 nM.
